Data reported in article PMC9482650, “Quantitative fragmentomics allow affinity mapping of interactomes” (Nature Communications, 2022).

What was measured:
Assay in all cases: holdup assay
Design in all cases: key: below the threshold = too weak to quantify, mostly under pKd 3.1 to 4
APBA2_1, Q99767 = target: T1, APBA2_1, Q99767
T1 sequence (Q99767 563-664, limits assumed, looked up): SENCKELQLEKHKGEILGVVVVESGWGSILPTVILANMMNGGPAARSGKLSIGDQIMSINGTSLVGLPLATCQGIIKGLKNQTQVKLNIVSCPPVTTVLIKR

DLG3_1, Q92796 = target: T2, DLG3_1, Q92796
T2 sequence (Q92796 125-227, limits assumed, looked up): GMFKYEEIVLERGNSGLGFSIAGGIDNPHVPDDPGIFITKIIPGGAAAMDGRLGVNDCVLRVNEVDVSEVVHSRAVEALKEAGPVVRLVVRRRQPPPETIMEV

DLG3_2, Q92796 = target: T3, DLG3_2, Q92796
T3 sequence (Q92796 221-321, limits assumed, looked up): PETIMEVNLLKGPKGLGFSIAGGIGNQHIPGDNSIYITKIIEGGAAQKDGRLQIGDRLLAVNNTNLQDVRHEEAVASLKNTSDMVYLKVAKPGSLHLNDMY

DVL3, Q92997 = target: T4, DVL3, Q92997
T4 sequence (Q92997 244-331, limits assumed, looked up): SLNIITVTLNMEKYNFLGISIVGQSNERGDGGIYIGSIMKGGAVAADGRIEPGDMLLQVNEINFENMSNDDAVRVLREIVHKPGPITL

FRMPD2_1, Q68DX3 = target: FRMPD2_1, Q68DX3
Sequence of FRMPD2_1, Q68DX3 (Q68DX3 770-861): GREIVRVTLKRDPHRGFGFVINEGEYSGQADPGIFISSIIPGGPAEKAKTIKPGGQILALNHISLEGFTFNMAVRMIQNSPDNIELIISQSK

GOPC, Q9HD26 = target: GOPC, Q9HD26
GORASP2, Q9H8Y8 = target: GORASP2, Q9H8Y8
GRID2IP_2, A4D2P6 = target: GRID2IP_2, A4D2P6
Sequence of GRID2IP_2, A4D2P6 (A4D2P6 272-370): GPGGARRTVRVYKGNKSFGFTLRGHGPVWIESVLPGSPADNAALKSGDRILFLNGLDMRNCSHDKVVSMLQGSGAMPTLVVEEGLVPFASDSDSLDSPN

GRIP2_4, Q9C0E4 = target: GRIP2_4, Q9C0E4
Sequence of GRIP2_4, Q9C0E4 (Q9C0E4 446-548): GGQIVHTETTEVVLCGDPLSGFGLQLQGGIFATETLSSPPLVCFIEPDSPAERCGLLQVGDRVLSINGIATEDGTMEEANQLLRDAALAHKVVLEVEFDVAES

IL16_3, Q14005 = target: IL16_3, Q14005
Sequence of IL16_3, Q14005 (Q14005 1107-1207): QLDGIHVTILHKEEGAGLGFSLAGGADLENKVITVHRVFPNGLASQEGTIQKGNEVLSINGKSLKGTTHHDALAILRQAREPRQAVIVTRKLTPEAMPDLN

Inadl_6, Q8NI35 = target: Inadl_6, Q8NI35
Sequence of Inadl_6, Q8NI35 (Q8NI35 1058-1167): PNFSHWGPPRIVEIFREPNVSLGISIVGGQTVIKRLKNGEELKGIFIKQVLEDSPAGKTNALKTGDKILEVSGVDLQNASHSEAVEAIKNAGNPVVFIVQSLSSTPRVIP

Inadl_8, Q8NI35 = target: Inadl_8, Q8NI35
Sequence of Inadl_8, Q8NI35 (Q8NI35 1425-1530): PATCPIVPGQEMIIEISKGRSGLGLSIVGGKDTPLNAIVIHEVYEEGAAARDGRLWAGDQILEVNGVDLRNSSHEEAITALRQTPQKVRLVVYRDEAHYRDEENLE

LIMK2, P53671 = target: LIMK2, P53671
Sequence of LIMK2, P53671 (P53671 143-248): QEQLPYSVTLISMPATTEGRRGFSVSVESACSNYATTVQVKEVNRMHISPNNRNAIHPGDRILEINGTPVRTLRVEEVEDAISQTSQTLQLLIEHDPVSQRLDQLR

LNX1_1, Q8TBB1 = target: LNX1_1, Q8TBB1
Sequence of LNX1_1, Q8TBB1 (Q8TBB1 261-371): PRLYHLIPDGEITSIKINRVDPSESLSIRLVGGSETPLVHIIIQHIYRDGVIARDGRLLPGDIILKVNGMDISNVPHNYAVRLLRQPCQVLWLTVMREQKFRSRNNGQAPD

LNX1_2, Q8TBB1 = target: LNX1_2, Q8TBB1
Sequence of LNX1_2, Q8TBB1 (Q8TBB1 371-470): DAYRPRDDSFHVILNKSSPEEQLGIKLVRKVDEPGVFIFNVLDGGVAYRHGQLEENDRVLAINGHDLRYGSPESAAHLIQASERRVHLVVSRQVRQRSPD

MAST1, Q9Y2H9 = target: MAST1, Q9Y2H9
Sequence of MAST1, Q9Y2H9 (Q9Y2H9 962-1065): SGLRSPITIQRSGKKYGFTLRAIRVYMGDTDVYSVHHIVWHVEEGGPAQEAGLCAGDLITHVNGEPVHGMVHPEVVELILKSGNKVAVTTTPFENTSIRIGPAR

MAST2, Q6P0Q8 = target: MAST2, Q6P0Q8
Sequence of MAST2, Q6P0Q8 (Q6P0Q8 1099-1202): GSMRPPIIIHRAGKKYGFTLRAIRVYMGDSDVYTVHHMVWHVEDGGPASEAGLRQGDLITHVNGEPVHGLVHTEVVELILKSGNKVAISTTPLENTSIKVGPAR

MPDZ_12, O75970 = target: T5, MPDZ_12, O75970
T5 sequence (O75970 1857-1958, limits assumed, looked up): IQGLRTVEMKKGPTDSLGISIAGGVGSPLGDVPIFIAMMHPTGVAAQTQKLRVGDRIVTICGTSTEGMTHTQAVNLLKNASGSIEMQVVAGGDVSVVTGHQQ

NHERF3_4, Q5T2W1 = target: T6, NHERF3_4, Q5T2W1
T6 sequence (Q5T2W1 373-468, limits assumed, looked up): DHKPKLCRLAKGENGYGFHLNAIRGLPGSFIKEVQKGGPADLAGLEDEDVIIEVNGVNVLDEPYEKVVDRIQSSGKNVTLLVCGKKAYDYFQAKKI

PARD3B_1, Q8TEW8 = target: T7, PARD3B_1, Q8TEW8
T7 sequence (Q8TEW8 196-299, limits assumed, looked up): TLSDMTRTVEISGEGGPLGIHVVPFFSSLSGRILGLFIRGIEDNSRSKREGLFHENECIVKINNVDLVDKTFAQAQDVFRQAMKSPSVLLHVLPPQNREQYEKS

PARD3_3, Q8TEW0 = target: PARD3_3, Q8TEW0
Sequence of PARD3_3, Q8TEW0 (Q8TEW0 582-685): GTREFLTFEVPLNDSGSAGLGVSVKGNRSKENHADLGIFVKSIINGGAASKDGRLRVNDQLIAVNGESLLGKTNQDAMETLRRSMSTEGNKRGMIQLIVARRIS

RHPN1, Q8TCX5 = target: T8, RHPN1, Q8TCX5
T8 sequence (Q8TCX5 508-602, limits assumed, looked up): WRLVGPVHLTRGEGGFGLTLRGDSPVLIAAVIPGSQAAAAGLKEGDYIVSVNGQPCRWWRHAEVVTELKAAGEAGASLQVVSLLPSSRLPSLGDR

SCRIB_1, Q14160 = target: SCRIB_1, Q14160
Sequence of SCRIB_1, Q14160 (Q14160 718-814): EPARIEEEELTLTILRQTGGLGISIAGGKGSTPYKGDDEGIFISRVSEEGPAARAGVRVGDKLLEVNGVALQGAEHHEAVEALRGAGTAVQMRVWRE

SCRIB_2, Q14160 = target: SCRIB_2, Q14160
Sequence of SCRIB_2, Q14160 (Q14160 857-960): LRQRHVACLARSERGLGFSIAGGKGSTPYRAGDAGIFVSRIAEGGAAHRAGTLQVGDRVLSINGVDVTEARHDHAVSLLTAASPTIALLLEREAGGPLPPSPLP

SHANK1, Q9Y566 = target: T9, SHANK1, Q9Y566
T9 sequence (Q9Y566 658-767, limits assumed, looked up): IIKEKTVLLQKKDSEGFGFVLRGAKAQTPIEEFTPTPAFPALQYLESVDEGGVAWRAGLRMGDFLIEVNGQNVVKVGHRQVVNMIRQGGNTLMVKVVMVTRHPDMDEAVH

SNTG2, Q9NY99 = target: T10, SNTG2, Q9NY99
T10 sequence (Q9NY99 68-166, limits assumed, looked up): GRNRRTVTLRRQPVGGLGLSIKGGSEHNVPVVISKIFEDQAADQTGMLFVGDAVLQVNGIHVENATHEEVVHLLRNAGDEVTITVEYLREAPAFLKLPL

TJP1_2, Q07157 = target: TJP1_2, Q07157
Sequence of TJP1_2, Q07157 (Q07157 181-274): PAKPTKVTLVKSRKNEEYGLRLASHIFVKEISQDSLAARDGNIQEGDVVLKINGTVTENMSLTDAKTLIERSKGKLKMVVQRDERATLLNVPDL

[1] = modified: phospho on T at position -1 from the C-terminal residue
[2] = plain residues with an end cap or a label only (N-terminal biotin on a linker: ado-ado)

Binder: RRVRKLPSTTL [RPS6KA1_-1P, Q15418]
- pKd (APBA2_1, Q99767; [1]): below the threshold
- pKd (DLG3_1, Q92796; [1]): 3.57
- pKd (DLG3_2, Q92796; [1]): 3.89
- pKd (DVL3, Q92997; [1]): below the threshold
- pKd (FRMPD2_1, Q68DX3; [1]): 3.33
- pKd (GOPC, Q9HD26; [1]): 4.66
- pKd (GORASP2, Q9H8Y8; [1]): 3.76
- pKd (GRID2IP_2, A4D2P6; [1]): 4.22
- pKd (GRIP2_4, Q9C0E4; [1]): below the threshold
- pKd (IL16_3, Q14005; [1]): below the threshold
- pKd (Inadl_6, Q8NI35; [1]): 3.52
- pKd (Inadl_8, Q8NI35; [1]): 3.57
- pKd (LIMK2, P53671; [1]): below the threshold
- pKd (LNX1_1, Q8TBB1; [1]): 4.63
- pKd (LNX1_2, Q8TBB1; [1]): below the threshold
- pKd (MAST1, Q9Y2H9; [1]): 4.5
- pKd (MAST2, Q6P0Q8; [1]): 5.17
- pKd (MPDZ_12, O75970; [1]): below the threshold
- pKd (NHERF3_4, Q5T2W1; [1]): 3.75
- pKd (PARD3B_1, Q8TEW8; [1]): 4.04
- pKd (PARD3_3, Q8TEW0; [1]): 3.84
- pKd (RHPN1, Q8TCX5; [1]): 3.62
- pKd (SCRIB_1, Q14160; [1]): 4.02
- pKd (SCRIB_2, Q14160; [1]): 3.61
- pKd (SHANK1, Q9Y566; [1]): 4.06
- pKd (SNTG2, Q9NY99; [1]): 4.16
- pKd (TJP1_2, Q07157; [1]): below the threshold

Binder: EEDTAEKDEL [HSPA5, P11021]
- pKd (APBA2_1, Q99767; [2]): below the threshold
- pKd (DLG3_1, Q92796; [2]): below the threshold
- pKd (DLG3_2, Q92796; [2]): below the threshold
- pKd (DVL3, Q92997; [2]): below the threshold
- pKd (FRMPD2_1, Q68DX3; [2]): below the threshold
- pKd (GOPC, Q9HD26; [2]): below the threshold
- pKd (GORASP2, Q9H8Y8; [2]): below the threshold
- pKd (GRID2IP_2, A4D2P6; [2]): below the threshold
- pKd (GRIP2_4, Q9C0E4; [2]): below the threshold
- pKd (IL16_3, Q14005; [2]): below the threshold
- pKd (Inadl_6, Q8NI35; [2]): below the threshold
- pKd (Inadl_8, Q8NI35; [2]): below the threshold
- pKd (LIMK2, P53671; [2]): below the threshold
- pKd (LNX1_1, Q8TBB1; [2]): 3.87
- pKd (LNX1_2, Q8TBB1; [2]): below the threshold
- pKd (MAST1, Q9Y2H9; [2]): 3.98
- pKd (MAST2, Q6P0Q8; [2]): 3.7
- pKd (MPDZ_12, O75970; [2]): 3.52
- pKd (NHERF3_4, Q5T2W1; [2]): below the threshold
- pKd (PARD3B_1, Q8TEW8; [2]): 3.72
- pKd (PARD3_3, Q8TEW0; [2]): below the threshold
- pKd (RHPN1, Q8TCX5; [2]): below the threshold
- pKd (SCRIB_1, Q14160; [2]): below the threshold
- pKd (SCRIB_2, Q14160; [2]): below the threshold
- pKd (SHANK1, Q9Y566; [2]): below the threshold
- pKd (SNTG2, Q9NY99; [2]): below the threshold
- pKd (TJP1_2, Q07157; [2]): below the threshold

Binder: SMLNRRTTPV [CACNG4, Q9UBN1]
- pKd (APBA2_1, Q99767; [2]): below the threshold
- pKd (DLG3_1, Q92796; [2]): 3.71
- pKd (DLG3_2, Q92796; [2]): 4.46
- pKd (DVL3, Q92997; [2]): below the threshold
- pKd (FRMPD2_1, Q68DX3; [2]): 3.54
- pKd (GOPC, Q9HD26; [2]): below the threshold
- pKd (GORASP2, Q9H8Y8; [2]): below the threshold
- pKd (GRID2IP_2, A4D2P6; [2]): 3.92
- pKd (GRIP2_4, Q9C0E4; [2]): below the threshold
- pKd (IL16_3, Q14005; [2]): below the threshold
- pKd (Inadl_6, Q8NI35; [2]): below the threshold
- pKd (Inadl_8, Q8NI35; [2]): 4.29
- pKd (LIMK2, P53671; [2]): below the threshold
- pKd (LNX1_1, Q8TBB1; [2]): below the threshold
- pKd (LNX1_2, Q8TBB1; [2]): 3.75
- pKd (MAST1, Q9Y2H9; [2]): 4.29
- pKd (MAST2, Q6P0Q8; [2]): 4.65
- pKd (MPDZ_12, O75970; [2]): below the threshold
- pKd (NHERF3_4, Q5T2W1; [2]): 3.5
- pKd (PARD3B_1, Q8TEW8; [2]): below the threshold
- pKd (PARD3_3, Q8TEW0; [2]): below the threshold
- pKd (RHPN1, Q8TCX5; [2]): below the threshold
- pKd (SCRIB_1, Q14160; [2]): 3.56
- pKd (SCRIB_2, Q14160; [2]): 3.53
- pKd (SHANK1, Q9Y566; [2]): below the threshold
- pKd (SNTG2, Q9NY99; [2]): below the threshold
- pKd (TJP1_2, Q07157; [2]): below the threshold
